In patent US20220041658A1 (PROTAGONIST THERAPEUTICS, published 2022):
Values belong to the binder of their own block, whether it stands above or below them. Starred links: 1 amine or outer side, 2 acyl side, 3 side chain; linkers in the order of their positions; H or OH if unused. Positions of bridges follow the written chain, without caps; N, C: chain ends. Non-standard residues stand in square brackets, D forms with d. Trp(7-Et) = 7-ethyl-tryptophan, CCc1cccc2c(C[C@H](N[*:1])C(=O)[*:2])c[nH]c12; Trp(7-Me) = Cc1cccc2c(C[C@H](N)C(=O)O)c[nH]c12; 2Nal = N[C@@H](Cc1ccc2ccccc2c1)C(=O)O; AEF = NCCOc1ccc(C[C@H](N)C(=O)O)cc1; Cit = NC(=O)NCCC[C@H](N)C(=O)O; Pen = CC(C)(S)[C@H](N)C(=O)O; αMeK = C[C@](N)(CCCCN)C(=O)O; Aib = CC(C)(N)C(=O)O; βAla = NCCC(=O)O

Experiments:
[1] = molecular target: T1, interleukin-23 receptor (IL-23R) (human, UniProt Q5VWK5 24-629); assay: cell-based or functional assay
T1 sequence (looked up): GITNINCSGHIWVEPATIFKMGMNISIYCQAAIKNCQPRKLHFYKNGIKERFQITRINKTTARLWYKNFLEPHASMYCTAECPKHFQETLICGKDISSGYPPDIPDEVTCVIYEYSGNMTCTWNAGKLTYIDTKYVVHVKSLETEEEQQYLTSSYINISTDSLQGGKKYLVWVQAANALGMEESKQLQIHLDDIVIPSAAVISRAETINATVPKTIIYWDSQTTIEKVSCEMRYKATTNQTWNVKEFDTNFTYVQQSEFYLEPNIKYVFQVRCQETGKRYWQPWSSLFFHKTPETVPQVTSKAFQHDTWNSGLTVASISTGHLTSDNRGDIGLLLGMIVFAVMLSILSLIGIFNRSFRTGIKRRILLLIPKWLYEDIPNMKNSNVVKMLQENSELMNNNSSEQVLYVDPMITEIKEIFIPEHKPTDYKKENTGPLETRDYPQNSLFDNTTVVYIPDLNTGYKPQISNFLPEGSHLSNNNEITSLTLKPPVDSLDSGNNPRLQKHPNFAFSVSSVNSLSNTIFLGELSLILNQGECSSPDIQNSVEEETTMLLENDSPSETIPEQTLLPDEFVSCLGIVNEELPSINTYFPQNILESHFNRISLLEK

[2] = molecular target: T1, interleukin-23 receptor (IL-23R); assay: cell-based or functional assay; remark: listed apart in the source

pStat3 HTRF IC50 [1]: 1.66 nM
NK Cell Assay IC50 [2]: 4.1 nM
B1: Peptide of SEQ ID NO: 239 (peptide)
peptide: XKTXQXXXXKNX
modifications: Ac-[Pen]-[Lys(Ac)]-T-[W(7-Me)]-Q-[Pen]-Phe[4-(2-aminoethoxy)]-[2-Nal]-[a-MeLys]-[Lys(Ac)]-N-[bA]-NH2; Pen-Pen disulfide

pStat3 HTRF IC50 [1]: 4.46 nM
NK Cell Assay IC50 [2]: 16.6 nM
B2: Peptide of SEQ ID NO: 205 (peptide)
peptide: XNTXQXXXXKGX
modifications: Ac-[Pen]-NT-[W(7-Me)]-Q-[Pen]-Phe[4-(2-aminoethoxy)]-[2-Nal]-[a-MeLeu]-[Lys(Ac)]-G-[bA]-NH2; Pen-Pen disulfide

pStat3 HTRF IC50 [1]: 56.7 nM
NK Cell Assay IC50 [2]: 114 nM
B3: Peptide of SEQ ID NO: 225 (peptide)
peptide: XNTXQXXXXKXX
modifications: Ac-[Pen]-NT-[W(7-Me)]-Q-[Pen]-Phe[4-(2-aminoethoxy)]-[2-Nal]-[a-MeLeu]-[Lys(Ac)]-[a-MeLeu]-[bA]-NH2; Pen-Pen disulfide

pStat3 HTRF IC50 [1]: 0.596 nM
NK Cell Assay IC50 [2]: 5.15 nM
B4: Peptide of SEQ ID NO: 264 (peptide)
peptide: Ac-[Pen]NT[Trp(7-Me)][Cit][Pen][AEF][2Nal][αMeK]K(Ac)N[Aib]-NH2
modifications: disulfide 1-6
SMILES: CC(=O)NCCCC[C@H](NC(=O)[C@](C)(CCCCN)NC(=O)[C@H](Cc1ccc2ccccc2c1)NC(=O)[C@H](Cc1ccc(OCCN)cc1)NC(=O)[C@H]1NC(=O)[C@H](CCCNC(N)=O)NC(=O)[C@H](Cc2c[nH]c3c(C)cccc23)NC(=O)[C@H]([C@@H](C)O)NC(=O)[C@H](CC(N)=O)NC(=O)[C@@H](NC(C)=O)C(C)(C)SSC1(C)C)C(=O)N[C@@H](CC(N)=O)C(=O)NC(C)(C)C(N)=O

pStat3 HTRF IC50 [1]: 0.446 nM
NK Cell Assay IC50 [2]: 4.36 nM
B5: Peptide of SEQ ID NO: 363 (peptide)
peptide: XNTXKXXXXXNL
modifications: Ac-[Pen]-N-T-[W(7-Me)]-[Lys(Ac)]-[Pen]-Phe[4-(2-aminoethoxy)]-[2-Nal]-[a-MeLys]-[Lys(PEG11-OMe)]-N-[(D)Leu]-NH2; Pen-Pen disulfide

pStat3 HTRF IC50 [1]: 0.607 nM
NK Cell Assay IC50 [2]: 7.6 nM
B6: Peptide of SEQ ID NO: 259 (peptide)
peptide: Ac-[Pen]NT[Trp(7-Me)][Cit][Pen][AEF][2Nal][αMeK]K(Ac)N[dY]-NH2
modifications: disulfide 1-6
SMILES: CC(=O)NCCCC[C@H](NC(=O)[C@](C)(CCCCN)NC(=O)[C@H](Cc1ccc2ccccc2c1)NC(=O)[C@H](Cc1ccc(OCCN)cc1)NC(=O)[C@H]1NC(=O)[C@H](CCCNC(N)=O)NC(=O)[C@H](Cc2c[nH]c3c(C)cccc23)NC(=O)[C@H]([C@@H](C)O)NC(=O)[C@H](CC(N)=O)NC(=O)[C@@H](NC(C)=O)C(C)(C)SSC1(C)C)C(=O)N[C@@H](CC(N)=O)C(=O)N[C@H](Cc1ccc(O)cc1)C(N)=O

pStat3 HTRF IC50 [1]: 12 nM
NK Cell Assay IC50 [2]: 21.4 nM
B7: Peptide of SEQ ID NO: 206 (peptide)
peptide: XNTXQXXXXKXX
modifications: Ac-[Pen]-NT-[W(7-Me)]-Q-[Pen]-Phe[4-(2-aminoethoxy)]-[2-Nal]-[a-MeLeu]-[Lys(Ac)]-[Cit]-[bA]-NH2; Pen-Pen disulfide

pStat3 HTRF IC50 [1]: 0.568 nM
NK Cell Assay IC50 [2]: 1.1 nM
B8: Peptide of SEQ ID NO: 360 (peptide)
peptide: XNTXKXXXXXNL
modifications: Ac-[Pen]-N-T-[W(7-Me)]-[Lys(Ac)]-[Pen]-Phe[4-(2-aminoethoxy)]-[2-Nal]-[a-MeLys]-[Lys(trifluoropropionic)]-N-[(D)Leu]-NH2; Pen-Pen disulfide

pStat3 HTRF IC50 [1]: 1.06 nM
NK Cell Assay IC50 [2]: 2.99 nM
B9: Peptide of SEQ ID NO: 238 (peptide)
peptide: Ac-[Pen][Cit]T[Trp(7-Me)]Q[Pen][AEF][2Nal][αMeK]K(Ac)N[βAla]-NH2
modifications: disulfide 1-6
SMILES: CC(=O)NCCCC[C@H](NC(=O)[C@](C)(CCCCN)NC(=O)[C@H](Cc1ccc2ccccc2c1)NC(=O)[C@H](Cc1ccc(OCCN)cc1)NC(=O)[C@H]1NC(=O)[C@H](CCC(N)=O)NC(=O)[C@H](Cc2c[nH]c3c(C)cccc23)NC(=O)[C@H]([C@@H](C)O)NC(=O)[C@H](CCCNC(N)=O)NC(=O)[C@@H](NC(C)=O)C(C)(C)SSC1(C)C)C(=O)N[C@@H](CC(N)=O)C(=O)NCCC(N)=O

pStat3 HTRF IC50 [1]: 1.61 nM
NK Cell Assay IC50 [2]: 13.3 nM
B10: Peptide of SEQ ID NO: 217 (peptide)
peptide: XNTXQXXXXKTX
modifications: Ac-[Pen]-NT-[W(7-Me)]-Q-[Pen]-Phe[4-(2-aminoethoxy)]-[2-Nal]-[a-MeLeu]-[Lys(Ac)]-T-[bA]-NH2; Pen-Pen disulfide

pStat3 HTRF IC50 [1]: 0.641 nM
NK Cell Assay IC50 [2]: 2.37 nM
B11: Peptide of SEQ ID NO: 242 (peptide)
peptide: XNTXKXXXXKNX
modifications: Ac-[Pen]-NT-[W(7-Me)]-[Lys(Ac)]-[Pen]-Phe[4-(2-aminoethoxy)]-[2-Nal]-[a-MeLys]-[Lys(Ac)]-N-[bA]-NH2; Pen-Pen disulfide

pStat3 HTRF IC50 [1]: 0.92 nM
NK Cell Assay IC50 [2]: 9.7 nM
B12: Peptide of SEQ ID NO: 258 (peptide)
peptide: XNTXKXXXXKNF
modifications: Ac-[Pen]-NT-[W(7-Me)]-[Lys(Ac)]-[Pen]-Phe[4-(2-aminoethoxy)]-[2-Nal]-[a-MeLys]-[Lys(Ac)]-N-[(D)Phe]-NH2; Pen-Pen disulfide

pStat3 HTRF IC50 [1]: 0.522 nM
NK Cell Assay IC50 [2]: 4.87 nM
B13: Peptide of SEQ ID NO: 261 (peptide)
peptide: Ac-[Pen]NT[Trp(7-Me)][Cit][Pen][AEF][2Nal][αMeK]K(Ac)N[dS]-NH2
modifications: disulfide 1-6
SMILES: CC(=O)NCCCC[C@H](NC(=O)[C@](C)(CCCCN)NC(=O)[C@H](Cc1ccc2ccccc2c1)NC(=O)[C@H](Cc1ccc(OCCN)cc1)NC(=O)[C@H]1NC(=O)[C@H](CCCNC(N)=O)NC(=O)[C@H](Cc2c[nH]c3c(C)cccc23)NC(=O)[C@H]([C@@H](C)O)NC(=O)[C@H](CC(N)=O)NC(=O)[C@@H](NC(C)=O)C(C)(C)SSC1(C)C)C(=O)N[C@@H](CC(N)=O)C(=O)N[C@H](CO)C(N)=O

pStat3 HTRF IC50 [1]: 25.7 nM
NK Cell Assay IC50 [2]: 9.55 nM
B14: Peptide of SEQ ID NO: 226 (peptide)
peptide: XNTXQXXXXKXX
modifications: Ac-[Pen]-NT-[W(7-Me)]-Q-[Pen]-Phe[4-(2-aminoethoxy)]-[2-Nal]-[a-MeLeu]-[Lys(Ac)]-[bA]-[bA]-NH2; Pen-Pen disulfide

pStat3 HTRF IC50 [1]: 1.27 nM
NK Cell Assay IC50 [2]: 5.5 nM
B15: Peptide of SEQ ID NO: 221 (peptide)
peptide: XNTXQXXXXKSX
modifications: Ac-[Pen]-NT-[W(7-Me)]-Q-[Pen]-Phe[4-(2-aminoethoxy)]-[2-Nal]-[a-MeLeu]-[Lys(Ac)]-S-[bA]-NH2; Pen-Pen disulfide

pStat3 HTRF IC50 [1]: 0.34 nM
NK Cell Assay IC50 [2]: 3.16 nM
B16: Peptide of SEQ ID NO: 284 (peptide)
peptide: Ac-[Pen]NT[Trp(7-Et)]K(Ac)[Pen][AEF][2Nal][αMeK]K(Ac)N[dL]-NH2
modifications: disulfide 1-6
SMILES: CCc1cccc2c(C[C@@H]3NC(=O)[C@H]([C@@H](C)O)NC(=O)[C@H](CC(N)=O)NC(=O)[C@@H](NC(C)=O)C(C)(C)SSC(C)(C)[C@@H](C(=O)N[C@@H](Cc4ccc(OCCN)cc4)C(=O)N[C@@H](Cc4ccc5ccccc5c4)C(=O)N[C@@](C)(CCCCN)C(=O)N[C@@H](CCCCNC(C)=O)C(=O)N[C@@H](CC(N)=O)C(=O)N[C@H](CC(C)C)C(N)=O)NC(=O)[C@H](CCCCNC(C)=O)NC3=O)c[nH]c12

pStat3 HTRF IC50 [1]: 9.84 nM
NK Cell Assay IC50 [2]: 30.1 nM
B17: Peptide of SEQ ID NO: 209 (peptide)
peptide: XNTXQXXXXKAX
modifications: Ac-[Pen]-NT-[W(7-Me)]-Q-[Pen]-Phe[4-(2-aminoethoxy)]-[2-Nal]-[a-MeLeu]-[Lys(Ac)]-[(D)Ala]-[bA]-NH2; Pen-Pen disulfide

pStat3 HTRF IC50 [1]: 13.5 nM
NK Cell Assay IC50 [2]: > 500 nM
B18: Peptide of SEQ ID NO: 216 (peptide)
peptide: XNTXQXXXXKIX
modifications: Ac-[Pen]-NT-[W(7-Me)]-Q-[Pen]-Phe[4-(2-aminoethoxy)]-[2-Nal]-[a-MeLeu]-[Lys(Ac)]-I-[bA]-NH2; Pen-Pen disulfide

pStat3 HTRF IC50 [1]: 1.1 nM
NK Cell Assay IC50 [2]: 3.49 nM
B19: Peptide of SEQ ID NO: 202 (peptide)
peptide: XNTXQXXXXKNX
modifications: Ac-[Pen]-NT-[W(7-Me)]-Q-[Pen]-Phe[4-(2-aminoethoxy)]-[2-Nal]-[a-MeLys]-[Lys(Ac)]-N-[bA]-NH2; Pen-Pen disulfide
